Test results as given in patent US8338155B2, “Modified mevalonate kinase with reduced feedback inhibition” (DSM IP Assets B.V., priority 2004, dated 2012).
Positions count from the first letter of the chain named. Numbers in names are those of the source.

B1: WT: non-mutated Saccharomyces cerevisiae mevalonate kinase containing a His6-tag (SEQ ID NO:3) (protein, listed as Saccharomyces cerevisiae)
chain: MRGSHHHHHHGSACSLPFLTSAPGKVIIFGEHSAVYNKPAVAASVSALRTYLLISESSAPDTIELDFPDISFNHKWSINDFNAITEDQVNSQKLAKAQQATDGLSQELVSLLDPLLAQLSESFHYHAAFCFLYMFVCLCPHAKNIKFSLKSTLPIGAGLGSSASISVSLALAMAYLGGLIGSNDLEKLSENDKHIVNQWAFIGEKCIHGTPSGIDNAVATYGNALLFEKDSHNGTINTNNFKFLDDFPAIPMILTYTRIPRSTKDLVARVRVLVTEKFPEVMKPILDAMGECALQGLEIMTKLSKCKGTDDEAVETNNELYEQLLELIRINHGLLVSIGVSHPGLELIKNLSDDLRIGSTKLTGAGGGGCSLTLLRRDITQEQIDSFKKKLQDDFSYETFETDLGGTGCCLLSAKNLNKDLKIKSLVFQLFENKTTTKQQIDDLLLPGNTNLPWTS
modifications: His6-tag
B2: F59S: Saccharomyces cerevisiae mevalonate kinase mutant with substitution F59S (protein, listed as Saccharomyces cerevisiae)
chain: MSLPFLTSAPGKVIIFGEHSAVYNKPAVAASVSALRTYLLISESSAPDTIELDFPDISSNHKWSINDFNAITEDQVNSQKLAKAQQATDGLSQELVSLLDPLLAQLSESFHYHAAFCFLYMFVCLCPHAKNIKFSLKSTLPIGAGLGSSASISVSLALAMAYLGGLIGSNDLEKLSENDKHIVNQWAFIGEKCIHGTPSGIDNAVATYGNALLFEKDSHNGTINTNNFKFLDDFPAIPMILTYTRIPRSTKDLVARVRVLVTEKFPEVMKPILDAMGECALQGLEIMTKLSKCKGTDDEAVETNNELYEQLLELIRINHGLLVSIGVSHPGLELIKNLSDDLRIGSTKLTGAGGGGCSLTLLRRDITQEQIDSFKKKLQDDFSYETFETDLGGTGCCLLSAKNLNKDLKIKSLVFQLFENKTTTKQQIDDLLLPGNTNLPWTS
B3: I142N, L158S, L231I, T367S: Saccharomyces cerevisiae mevalonate kinase mutant with substitutions I142N, L158S, L231I and T367S (protein, listed as Saccharomyces cerevisiae)
chain: B2 chain with S59F, I142N, L158S, L231I, T367S
B4: L106P, S218P: Saccharomyces cerevisiae mevalonate kinase mutant with substitutions L106P and S218P (protein, listed as Saccharomyces cerevisiae)
chain: B2 chain with S59F, L106P, S218P
B5: H111N, K375N: Saccharomyces cerevisiae mevalonate kinase mutant with substitutions H111N and K375N (protein, listed as Saccharomyces cerevisiae)
chain: B2 chain with S59F, H111N, K375N
B6: K83E, S249P: Saccharomyces cerevisiae mevalonate kinase mutant with substitutions K83E and S249P (protein, listed as Saccharomyces cerevisiae)
chain: B2 chain with S59F, K83E, S249P
B7: P55L, C117S: Saccharomyces cerevisiae mevalonate kinase mutant with substitutions P55L and C117S (protein, listed as Saccharomyces cerevisiae)
chain: B2 chain with P55L, S59F, C117S

Each molecule was assayed on Saccharomyces cerevisiae mevalonate kinase (assay: Mevalonate kinase activity assay (NADH consumption, photometric at 340 nm): specific activity). Settings: purified His6-tagged enzyme; WT = non-mutated His6-tagged mevalonate kinase.
Type: biochemical
Excerpt: Methods for measuring specific activity are known to the person skilled in the art. The specific activity may for instance be determined via measuring the consumption of NADH. Suitable conditions for such measurement may be those as e.g. outlined in Example 1 except that, typically, saturating substrate concentrations are used or, in the case of enzyme inhibition at high substrate concentrations, at substrate concentrations that provide maximal activity under the particular experimental conditions.
(§1) For preparing mevalonate as substrate, 130 mg of DL-mevalonate lactone (FLUKA Chemie AG, Buchs, Switzerland) were dissolved in 5.5 ml of 0.2 M KOH and incubated for 15 min at 50° C. The solution was then adjusted to pH 7.0 by addition of 0.1 M HCl at room temperature (RT). Except if stated otherwise, the assay mixture consisted of 100 mM K2BPO/KH2PO4 (pH 7.0), 1 mM ATP, 2 mM MgCl2, 1 mM mevalonate, 0.5 mM phosphoenolpyruvate (PEP), 0.32 mM NADH, 20 U/ml pyruvate kinase and 27 U/ml lactate dehydrogenase (Sigma-Aldrich, St. Louis, Mo., USA). Inhibition was tested by adding 1 μM FPP.
(§2) Purification of His6-tagged mevalonate kinase and of His6-tagged mevalonate kinase mutant enzymes was done with Ni-NTA chromatography using the QIAexpress system/reagents of Qiagen. Upon addition of purified (His6-tagged) mevalonate kinase, enzymatic reaction reflected by consumption of NADH was followed by photometric measurement at 340 nm. One unit (1 U) of mevalonate kinase activity catalyzes the phosphorylation of 1 μmol of mevalonate per min.
(§3) Preparation of Mevalonate and Activity Measurement was Exactly Performed as Described in Example 1. 1 μM FPP was used for inhibition assays performed with the Saccharomyces cerevisiae mevalonate kinase wild-type enzyme and its mutants.

Molecule	Specific activity (% of wild-type)
B1	100 % of wild-type
B2	31 % of wild-type
B3	61 % of wild-type
B4	42 % of wild-type
B5	87 % of wild-type
B6	78 % of wild-type
B7	60 % of wild-type

Each molecule was assayed on Saccharomyces cerevisiae mevalonate kinase (assay: Inhibition of mevalonate kinase activity by the feedback inhibitor FPP: feedback resistance). Settings: 1 μM FPP; % resistance=100·((d/c)−(b/a))/(1−(b/a)) relative to wild-type.
Type: biochemical
Description: “Feedback resistance” as used herein may be any increase in resistance to “feedback inhibition” (as defined above). Feedback resistance can be analyzed in different ways known to those skilled in the art. An appropriate example of such an analysis is shortly described herein: mevalonate kinase activity is measured in an activity assay at non-saturating concentrations of for instance ATP (or of another phosphate donor) and mevalonate (or mevalonate analogue), i.e., at for instance ATP (or phosphate donor) and mevalonate (or mevalonate analogue) concentrations around which the reaction rate is sensitive to changes of these substrate concentrations, e.g., at concentrations around the respective Km values of the enzyme under investigation for these substrates. The activities of both wild-type mevalonate kinase and of a variant/mutant of this enzyme are measured under otherwise identical conditions both in the absence and presence of a relevant concentration of a feedback inhibitor, i.e., at a concentration of feedback inhibitor affording significant inhibition of the wild-type mevalonate kinase. If the extent of inhibition (e.g., % inhibition) by the feedback inhibitor is lower for the mutant than for the wild-type enzyme, then the mutant is feedback resistant in the context of the present patent application. Once a feedback resistant variant/mutant has been identified, the same procedure as described above may be applied to identify further improved mutants, i.e., mutants that are even more feedback resistant. Feedback resistance (%) is calculated as follows: if (a) and (b) are the measured mevalonate kinase activities of the wild-type enzyme in the absence and presence, respectively, of the feedback inhibitor (e.g., FPP), and if (c) and (d) are the measured mevalonate kinase activities of the mutant enzyme in the absence and presence, respectively, of the same feedback inhibitor, then % feedback resistance is: % resistance=100·((d/c)−(b/a))/(1−(b/a))
as §1, §2, §3
Feedback resistance (%) was calculated according to the following formula: % resistance=100·((d/c)−(b/a))/(1−(b/a)) wherein (a) and (b) refer to the measured mevalonate kinase activities of the wild-type enzyme in the absence and presence, respectively, and (c) and (d) refer to the measured mevalonate kinase activities of the mutant enzyme in the absence and presence, respectively, of FPP. The results are shown in Tab. 1, wherein WT represents the non-mutated mevalonate kinase containing a His6-tag (SEQ ID NO:3).

Molecule	Feedback resistance (%)
B1	0
B2	56
B3	58
B4	24
B5	65
B6	37
B7	58
